From PMC10368727, “Sequestration of histidine kinases by non-cognate response regulators establishes a threshold level of stimulation for bacterial two-component signaling” (Nature Communications, 2023) come the findings set out here.

B1: response regulator MprA (natural protein)
chain: MSVRILVVDDDRAVRESLRRSLSFNGYSVELAHDGVEALDMIASDRPDALVLDVMMPRLDGLEVCRQLRGTGDDLPILVLTARDSVSERVAGLDAGADDYLPKPFALEELLARMRALLRRTKPEDAAESMAMRFSDLTLDPVTREVNRGQRRISLTRTEFALLEMLIANPRRVLTRSRILEEVWGFDFPTSGNALEVYVGYLRRKTEADGEPRLIHTVRGVGYVLRETPP
B2: response regulator PrrA (natural protein)
chain: MDTGVTSPRVLVVDDDSDVLASLERGLRLSGFEVATAVDGAEALRSATENRPDAIVLDINMPVLDGVSVVTALRAMDNDVPVCVLSARSSVDDRVAGLEAGADDYLVKPFVLAELVARVKALLRRRGSTATSSSETITVGPLEVDIPGRRARVNGVDVDLTKREFDLLAVLAEHKTAVLSRAQLLELVWGYDFAADTNVVDVFIGYLRRKLEAGGGPRLLHTVRGVGFVLRMQ
B3: response regulator NarL (natural protein)
chain: MSNPQPEKVRVVVGDDHPLFREGVVRALSLSGSVNVVGEADDGAAALELIKAHLPDVALLDYRMPGMDGAQVAAAVRSYELPTRVLLISAHDEPAIVYQALQQGAAGFLLKDSTRTEIVKAVLDCAKGRDVVAPSLVGGLAGEIRQRAAPVAPVLSAREREVLNRIACGQSIPAIAAELYVAPSTVKTHVQRLYEKLGVSDRAAAVAEAMRQRLLD
notes: also called non-cognate RR NarL
B4: phosphorylated, histidine tag labeled HK DevS (cytosolic catalytic domain) (domain or fragment)
chain: LATSQRRMRELDVLTDRDRIARDLHDHVIQRLFAIGLALQGAVPHERNPEVQQRLSDVVDDLQDVIQEIRTTIYDLHGASQGITRLRQRIDAAVAQFADSGLRTSVQFVGPLSVVDSALADQAEAVVREAVSNAVRHAKASTLTVRVKVDDDLCIEVTDNGRGLPDEFTGSGLTNLRQRAEQAGGEFTLASVPGASGTVLRWSAPLSQ
notes: also called DevS~P
B5: GFP-tagged MtrB, unphosphorylated (cytosolic catalytic domain) (domain or fragment)
chain: SRQVVVPVRSASRIAERFAEGHLSERMPVRGEDDMARLAVSFNDMAESLSRQIAQLEEFGNLQRRFTSDVSHELRTPLTTVRMAADLIYDHSADLDPTLRRSTELMVSELDRFETLLNDLLEISRHDAGVAELSVEAVDLRTTVNNALGNVGHLAEEAGIELLVDLPAEQVIAEVDARRVERILRNLIANAIDHAEHKPVRIRMAADEDTVAVTVRDYGVGLRPGEEKLVFSRFWRSDPSRVRRSGGTGLGLAISVEDARLHQGRLEAWGEPGEGACFRLTLPMVRGHKVTTSPLPMKPIPQPVLQPVAQPNPQPMPPEYKERQRPREHAEWSG
notes: also called MtrB-GFP
B6: phosphorylated, GFP-tagged HK MtrB (cytosolic catalytic domain) (domain or fragment)
chain: B5 chain
notes: also called MtrB~P; P~MtrB-GFP
B7: response regulator TcrX (natural protein)
chain: MRRADGQPVTVLVVDDEPVLAEMVSMALRYEGWNITTAGDGSSAIAAARRQRPDVVVLDVMLPDMSGLDVLHKLRSENPGLPVLLLTAKDAVEDRIAGLTAGGDDYVTKPFSIEEVVLRLRALLRRTGVTTVDSGAQLVVGDLVLDEDSHEVMRAGEPVSLTSTEFELLRFMMHNSKRVLSKAQILDRVWSYDFGGRSNIVELYISYLRKKIDNGREPMIHTLRGAGYVLKPAR
B8: response regulator KdpE (natural protein)
chain: MTLVLVIDDEPQILRALRINLTVRGYQVITASTGAGALRAAAEHPPDVVILDLGLPDMSGIDVLGGLRGWLTAPVIVLSARTDSSDKVQALDAGADDYVTKPFGMDEFLARLRAAVRRNTAAAELEQPVIETDSFTVDLAGKKVIKDGAEVHLTPTEWGMLEMLARNRGKLVGRGELLKEVWGPAYATETHYLRVYLAQLRRKLEDDPSHPKHLLTESGMGYRFEA
B9: phosphorylated, GFP-tagged HK PhoR (cytosolic catalytic domain) (domain or fragment)
chain: RRSLRPLAEFEQTAAAIGAGQLDRRVPQWHPRTEVGRLSLALNGMLAQIQRAVASAESSAEKARDSEDRMRQFITDASHELRTPLTTIRGFAELYRQGAARDVGMLLSRIESEASRMGLLVDDLLLLARLDAHRPLELCRVDLLALASDAAHDARAMDPKRRITLEVLDGPGTPEVLGDESRLRQVLRNLVANAIQHTPESADVTVRVGTEGDDAILEVADDGPGMSQEDALRVFERFYRADSSRARASGGTGLGLSIVDSLVAAHGGAVTVTTALGEGCCFRVSLPRVSDVDQLSLTPVVPGPP
notes: also called PhoR-GFP; PhoR~P
B10: response regulator MtrA (natural protein)
chain: MDTMRQRILVVDDDASLAEMLTIVLRGEGFDTAVIGDGTQALTAVRELRPDLVLLDLMLPGMNGIDVCRVLRADSGVPIVMLTAKTDTVDVVLGLESGADDYIMKPFKPKELVARVRARLRRNDDEPAEMLSIADVEIDVPAHKVTRNGEQISLTPLEFDLLVALARKPRQVFTRDVLLEQVWGYRHPADTRLVNVHVQRLRAKVEKDPENPTVVLTVRGVGYKAGPP
notes: also called cognate RR MtrA
B11: response regulator TcrA (natural protein)
chain: MADETTMRAGRGPGRACGRVSGVRILVVEDEPKMTALLARALTEEGHTVDTVADGRHAVAAVDGGDYDAVVLDVMLPGIDGFEVCARLRRQRVWTPVLMLTARGAVTDRIAGLDGGADDYLTKPFNLDELFARLRALSRRGPIPRPPTLEAGDLRLDPSEHRVWRADTEIRLSHKEFTLLEALIRRPGIVHTRAQLLERCWDAAYEARSNIVDVYIRYLRDKIDRPFGVTSLETIRGAGYRLRKDGGRHALPR

Read-outs that look alike come from different tables or passages of the source.

What all share (settings): both partners purified
Assay [1] has as its target T1, phosphorylated, histidine tag labeled HK PrrB (cytosolic catalytic domain) (M. tuberculosis, UniProt P9WGK7 172-446).
T1 construct: also called PrrB~P
T1 sequence: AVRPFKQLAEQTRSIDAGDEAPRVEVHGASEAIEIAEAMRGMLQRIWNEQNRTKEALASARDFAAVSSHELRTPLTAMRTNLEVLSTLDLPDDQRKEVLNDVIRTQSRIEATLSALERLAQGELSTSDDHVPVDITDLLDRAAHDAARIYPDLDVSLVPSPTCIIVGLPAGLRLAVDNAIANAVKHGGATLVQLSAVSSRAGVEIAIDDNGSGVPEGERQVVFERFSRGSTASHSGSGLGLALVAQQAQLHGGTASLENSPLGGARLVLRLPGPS
The assay can be described thus: MST.

The target in assay [2] is B6. As to the kind of experiment: MST.
For assay [3], the target named is T2, phosphorylated, histidine tag labeled HK KdpD (cytosolic catalytic domain) (M. tuberculosis, UniProt P9WGL3 532-860).
T2 construct: also called KdpD~P
T2 sequence: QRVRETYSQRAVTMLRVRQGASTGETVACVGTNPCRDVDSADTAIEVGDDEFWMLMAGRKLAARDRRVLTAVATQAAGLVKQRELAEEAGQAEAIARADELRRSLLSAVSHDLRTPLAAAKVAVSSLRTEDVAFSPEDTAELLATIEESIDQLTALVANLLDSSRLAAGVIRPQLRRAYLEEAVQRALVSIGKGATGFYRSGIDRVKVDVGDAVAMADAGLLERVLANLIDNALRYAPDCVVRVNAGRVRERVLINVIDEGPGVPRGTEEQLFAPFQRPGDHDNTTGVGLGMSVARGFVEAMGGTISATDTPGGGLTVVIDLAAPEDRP
As to the kind of experiment: MST.

For assay [4], the target named is B5. As to the kind of experiment: MST; GFP-tagged MtrB in the unphosphorylated state titrated with RR.
The target in assay [5] is B3. As to the kind of experiment: MST.
Assay [6] has as its target response regulator DevR (M. tuberculosis, UniProt P9WMF9 1-217). The assay can be described thus: MST.
In assay [7] the target is T3, response regulator PhoP (M. tuberculosis, UniProt P71814 1-247). The assay can be described thus: MST; GFP-tagged MtrB in the unphosphorylated state titrated with RR.
Assay [8] concerns the target T3, response regulator PhoP.
For assay [9], the target named is B9.

Sequence of response regulator DevR (P9WMF9 whole entry): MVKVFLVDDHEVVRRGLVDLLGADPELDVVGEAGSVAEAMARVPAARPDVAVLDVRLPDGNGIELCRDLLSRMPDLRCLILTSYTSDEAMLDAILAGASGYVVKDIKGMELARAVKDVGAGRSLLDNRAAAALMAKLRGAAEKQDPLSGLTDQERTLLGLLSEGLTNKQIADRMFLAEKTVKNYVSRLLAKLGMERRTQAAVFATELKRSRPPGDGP

As for B1, the dissociation constant (Kd) (in general, the concentration at which binding is half-saturated) in assay [1] was 1.96 µM.
The same measure, in the same setting: for B2 the value was 4.31 µM.
Turning to B3, the results for the Kd in assay [2], in assay [3] and in assay [4] were 83 ± 15 nM, 355 nM and 402 ± 58 nM, respectively.
Consider B4, for which the Kd in assay [5] was 325 nM; in [6], 13.2 µM.
B5 registered a Kd in assay [7] of 18.1 ± 2.74 µM.
In assay [8], B6 showed a Kd of 3580 ± 121 nM.
Take B7: the Kd in assay [2] turned out to be 82 ± 12 nM; in assay [4] it was 21700 ± 5020 nM; in assay [9], 484 nM.
With B8, the results for the Kd in assay [2] and in [3] were 868 ± 100 nM and 4490 nM, respectively.
As for B9, in [8], the Kd stood at 1480 nM.
Take B10: the Kd in assay [2] is 444 ± 117 nM; in [4], 936 ± 113 nM.
In the case of B11, the Kd in assay [2] was 3070 ± 74 nM; in assay [9], 1830 nM.
